Source: article PMC4277623, “Synthesis and Preliminary Evaluation of a New ^99mTc Labeled Substance P Analogue as a Potential Tumor Imaging Agent” (Iranian Journal of Pharmaceutical Research : IJPR, 2015)
Read-outs that look alike come from different tables or passages of the source.

Assays:
Stability in human serum = format: in vitro ADME; conditions: fresh human serum, 37 °C, up to 24 h; sampled 1, 4, 24 h; ethanol precipitation; RP-HPLC
Method: The stability of radiolabeled peptide in aqueous solution was evaluated by incubation of the reaction mixture at room temperature (25 °C)up to 24 h.Stability in human serum at 37 °C was tested in parallel after adding 100 μL of reaction mixture to 1ml of fresh human serum. The incubation mixtures were sampled at 1, 4, and 24 h time points. Serum samples (100-200 μL) were treated with ethanol (200-400 μL) and centrifuged (4000 g, 5 min, 4 °C) to precipitate the serum proteins. 20-100 μL aliquots from the supernatant were separated to assess the degradation of ^99mTc labeled peptide by RP-HPLC (method I). 100 μL aliquots from the 25 °C incubated mixture were passed through a […] to eliminate possible ^99mTc colloids and then, 5-20 μL of filtrate were analyzed by RP-HPLC as well.

[1] = Biodistribution in tumor bearing nude mice; format: in vivo; conditions: male, nude, mouse, iv, total radioactivity, mean ± SEM; for tissue uptake at 1 h: 1 h p.i.; for tissue uptake at 4 h: 4 h p.i.
Method: (§1) Male albino mice in a weight range of18-24 g were used for normal mice treatments and malenude mice (6 to 8 weeks old) were used for in-vivo tumor treatments. The mice were housed at controlled room temperature (25 °C) in a 12 h light/12 h dark schedule. They were kept in standard cages with free access to food and water except during the experiments. The nude mice were grown and kept in isolated sterile condition. All animal experiments were carried out in compliance with our institutional ethical guidelines.
(§2) U373MG cells were grown and harvested by trypsinization. Cells were washed twice with fresh RPMI medium containing 20% FBS and centrifuged for 5 min at 200 g. Pellets were resuspended in RPMI medium containing 20% FBS. A 100 µL suspension of 4 × 10^6 cells was subcutaneously injected on the right flank of each nude mouse. After four weeks, the size of inducted tumors was suitable for biodistribution study and mice were injected via the tail vein with radiolabeled peptide in two groups in the presence and absence of block. They sacrificed at 1 h and 4 h time points to assay the biodistribution. They were dissected and % ID/g of tissues was measured as described above. Finally, tumor-to-organ ratios were calculated.

U373MG tumor = experiment: Biodistribution in tumor bearing nude mice; format: in vivo
Method: as §1, §2

[2] = U373MG tumor, U373MG tumor, blocked tumor bearing nude mice (excess SP), P< 0.01 vs nonblocked, read-out: %ID/g Tumor
[3] = blood, Blood, blocked tumor bearing nude mice (excess SP), read-out: %ID/g Blood
[4] = bone, Bone, blocked tumor bearing nude mice (excess SP), read-out: %ID/g Bone
[5] = bone, Bone, tumor bearing nude mice, i.v., n=3, read-out: %ID/g Bone
[6] = heart, Heart, blocked tumor bearing nude mice (excess SP), read-out: %ID/g Heart
[7] = heart, Heart, tumor bearing nude mice, i.v., n=3, read-out: %ID/g Heart
[8] = kidneys, Kidneys, blocked tumor bearing nude mice (excess SP), read-out: %ID/g Kidneys
[9] = kidneys, Kidneys, tumor bearing nude mice, i.v., n=3, read-out: %ID/g Kidneys
[10] = muscle, Muscle, blocked tumor bearing nude mice (excess SP), read-out: %ID/g Muscle
[11] = muscle, Muscle, tumor bearing nude mice, i.v., n=3, read-out: %ID/g Muscle
[12] = salivary gland, Salivary G., blocked tumor bearing nude mice (excess SP), read-out: %ID/g Salivary G.
[13] = salivary gland, Salivary G., tumor bearing nude mice, i.v., n=3, read-out: %ID/g Salivary G.
[14] = spleen, Spleen, blocked tumor bearing nude mice (excess SP), read-out: %ID/g Spleen
[15] = spleen, Spleen, tumor bearing nude mice, i.v., n=3, read-out: %ID/g Spleen
[16] = stomach, Stomach, blocked tumor bearing nude mice (excess SP), read-out: %ID/g Stomach
[17] = stomach, Stomach, tumor bearing nude mice, i.v., n=3, read-out: %ID/g Stomach

SMILES: CC(C)C[C@H](NC(=O)CNC(=O)[C@H](Cc1ccc(O)cc1)NC(=O)[C@H](Cc1ccccc1)NC(=O)[C@H](CCC(N)=O)NC(=O)[C@H](CCC(N)=O)NC(=O)[C@@H]1CCCN1C(=O)[C@H](CCCCN)NC(=O)[C@@H]1CCCN1C(=O)[C@H](CCCNC(=N)N)NC(=O)c1ccc(NN)nc1)C(=O)N[C@@H](CC[S+](C)[O-])C(N)=O (some centres unmarked) [^99mTc-HYNIC-Tyr^8-Met(O)^11-SP, metal not drawn]
- stability in human serum (Stability in human serum): good stability
- tissue uptake at 1 h [1, 2]: 1.36 ± 0.19 %ID/g
- tissue uptake at 4 h [1, 2]: 0.54 ± 0.08 %ID/g
- tissue uptake at 4 h ([1]; U373MG tumor, U373MG tumor, tumor bearing nude mice, i.v., n=3, read-out: %ID/g Tumor): 1.26 ± 0.11 %ID/g
- tissue uptake at 1 h [1, 3]: 1.7 ± 0.14 %ID/g
- tissue uptake at 4 h [1, 3]: 0.52 ± 0.15 %ID/g
- tissue uptake at 4 h ([1]; blood, Blood, tumor bearing nude mice, i.v., n=3, read-out: %ID/g Blood): 0.41 ± 0.12 %ID/g
- tissue uptake at 1 h [1, 4]: 0.66 ± 0.07 %ID/g
- tissue uptake at 4 h [1, 4]: 0.31 ± 0.03 %ID/g
- tissue uptake at 1 h [1, 5]: 0.52 ± 0.06 %ID/g
- tissue uptake at 4 h [1, 5]: 0.27 ± 0.03 %ID/g
- tissue uptake at 1 h [1, 6]: 0.98 ± 0.09 %ID/g
- tissue uptake at 4 h [1, 6]: 0.23 ± 0.02 %ID/g
- tissue uptake at 1 h [1, 7]: 0.78 ± 0.11 %ID/g
- tissue uptake at 4 h [1, 7]: 0.25 ± 0.02 %ID/g
- tissue uptake at 1 h [1, 8]: 20.2 ± 0.61 %ID/g
- tissue uptake at 4 h [1, 8]: 13.1 ± 0.76 %ID/g
- tissue uptake at 1 h [1, 9]: 19.3 ± 0.65 %ID/g
- tissue uptake at 4 h [1, 9]: 12.8 ± 0.52 %ID/g
- tissue uptake at 1 h [1, 10]: 0.73 ± 0.09 %ID/g
- tissue uptake at 4 h [1, 10]: 0.09 ± 0.01 %ID/g
- tissue uptake at 1 h [1, 11]: 0.51 ± 0.06 %ID/g
- tissue uptake at 4 h [1, 11]: 0.08 ± 0.01 %ID/g
- tissue uptake at 1 h [1, 12]: 0.95 ± 0.06 %ID/g
- tissue uptake at 4 h [1, 12]: 0.41 ± 0.03 %ID/g
- tissue uptake at 1 h [1, 13]: 1 ± 0.09 %ID/g
- tissue uptake at 4 h [1, 13]: 0.33 ± 0.04 %ID/g
- tissue uptake at 1 h [1, 14]: 0.34 ± 0.04 %ID/g
- tissue uptake at 4 h [1, 14]: 0.26 ± 0.03 %ID/g
- tissue uptake at 1 h [1, 15]: 0.46 ± 0.07 %ID/g
- tissue uptake at 4 h [1, 15]: 0.32 ± 0.03 %ID/g
- tissue uptake at 1 h [1, 16]: 0.63 ± 0.13 %ID/g
- tissue uptake at 4 h [1, 16]: 0.26 ± 0.05 %ID/g
- tissue uptake at 1 h [1, 17]: 0.81 ± 0.12 %ID/g
- tissue uptake at 4 h [1, 17]: 0.32 ± 0.03 %ID/g
- D% Blood (U373MG tumor; Blood, decreased percent of %ID/g between 1 h and 4 h, nude mice): 69%
- %ID/g Blood (U373MG tumor; Blood, tumor bearing nude mice, 1 h p.i., i.v., mean ± SEM, n=3): 1.32±0.16 %ID/g
- D% Bone (U373MG tumor; Bone, decreased percent of %ID/g between 1 h and 4 h, nude mice): 48%
- D% Heart (U373MG tumor; Heart, decreased percent of %ID/g between 1 h and 4 h, nude mice): 68%
- D% Kidneys (U373MG tumor; Kidneys, decreased percent of %ID/g between 1 h and 4 h, nude mice): 34%
- %ID/g L. intestine (U373MG tumor; L. intestine, blocked tumor bearing nude mice (excess SP), 1 h p.i., mean ± SEM, P< 0.01 vs nonblocked): 0.73±0.14 %ID/g
- %ID/g L. intestine (U373MG tumor; L. intestine, blocked tumor bearing nude mice (excess SP), 4 h p.i., mean ± SEM, P< 0.01 vs nonblocked): 0.70±0.16 %ID/g
- D% L. intestine (U373MG tumor; L. intestine, decreased percent of %ID/g between 1 h and 4 h, nude mice): 3%
- %ID/g L. intestine (U373MG tumor; L. intestine, tumor bearing nude mice, 1 h p.i., i.v., mean ± SEM, n=3): 1.89±0.15 %ID/g
- %ID/g L. intestine (U373MG tumor; L. intestine, tumor bearing nude mice, 4 h p.i., i.v., mean ± SEM, n=3): 1.83±0.06 %ID/g
- %ID/g Liver (U373MG tumor; Liver, blocked tumor bearing nude mice (excess SP), 1 h p.i., mean ± SEM): 0.96±0.10 %ID/g
- %ID/g Liver (U373MG tumor; Liver, blocked tumor bearing nude mice (excess SP), 4 h p.i., mean ± SEM): 0.50±0.08 %ID/g
- D% Liver (U373MG tumor; Liver, decreased percent of %ID/g between 1 h and 4 h, nude mice): 37%
- %ID/g Liver (U373MG tumor; Liver, tumor bearing nude mice, 1 h p.i., i.v., mean ± SEM, n=3): 0.86±0.09 %ID/g
- %ID/g Liver (U373MG tumor; Liver, tumor bearing nude mice, 4 h p.i., i.v., mean ± SEM, n=3): 0.54±0.07 %ID/g
- %ID/g Lung (U373MG tumor; Lung, blocked tumor bearing nude mice (excess SP), 1 h p.i., mean ± SEM): 1.53±0.25 %ID/g
- %ID/g Lung (U373MG tumor; Lung, blocked tumor bearing nude mice (excess SP), 4 h p.i., mean ± SEM): 0.67±0.09 %ID/g
- D% Lung (U373MG tumor; Lung, decreased percent of %ID/g between 1 h and 4 h, nude mice): 48%
- %ID/g Lung (U373MG tumor; Lung, tumor bearing nude mice, 1 h p.i., i.v., mean ± SEM, n=3): 1.47±0.15 %ID/g
- %ID/g Lung (U373MG tumor; Lung, tumor bearing nude mice, 4 h p.i., i.v., mean ± SEM, n=3): 0.76±0.12 %ID/g
- D% Muscle (U373MG tumor; Muscle, decreased percent of %ID/g between 1 h and 4 h, nude mice): 84%
- %ID/g S. intestine (U373MG tumor; S. intestine, blocked tumor bearing nude mice (excess SP), 1 h p.i., mean ± SEM, P< 0.01 vs nonblocked): 0.83±0.12 %ID/g
- %ID/g S. intestine (U373MG tumor; S. intestine, blocked tumor bearing nude mice (excess SP), 4 h p.i., mean ± SEM, P< 0.05 vs nonblocked): 0.36±0.09 %ID/g
- D% S. intestine (U373MG tumor; S. intestine, decreased percent of %ID/g between 1 h and 4 h, nude mice): 70%
- %ID/g S. intestine (U373MG tumor; S. intestine, tumor bearing nude mice, 1 h p.i., i.v., mean ± SEM, n=3): 2.57±0.34 %ID/g
- %ID/g S. intestine (U373MG tumor; S. intestine, tumor bearing nude mice, 4 h p.i., i.v., mean ± SEM, n=3): 0.78±0.07 %ID/g
- D% Salivary G. (U373MG tumor; Salivary G., decreased percent of %ID/g between 1 h and 4 h, nude mice): 66%
- D% Stomach (U373MG tumor; Stomach, decreased percent of %ID/g between 1 h and 4 h, nude mice): 61%
- D% Tumor (U373MG tumor; U373MG tumor, decreased percent of %ID/g between 1 h and 4 h, nude mice): 62%
- %ID/g Tumor (U373MG tumor; U373MG tumor, tumor bearing nude mice, 1 h p.i., i.v., mean ± SEM, n=3): 3.36±0.26 %ID/g
